Literature values, collected in patent US20250027955A1, “ETHYLENE RECEPTORS AND BINDING DOMAINS WITH MODIFIED BINDING KINETICS FOR ETHYLENE” (Trustees of Dartmouth College, priority 2022, published 2025).

B1: etr1-1: well-characterized ETR1 missense mutation Cys65Tyr; ethylene-insensitive control (protein, UniProt P49333 1-738, looked up, variant C65Y)
Ethylene receptor 1: MEVCNCIEPQWPADELLMKYQYISDFFIAIAYFSIPLELIYFVKKSAVFPYRWVLVQFGAFIVLYGATHLINLWTFTTHSRTVALVMTTAKVLTAVVSCATALMLVHIIPDLLSVKTRELFLKNKAAELDREMGLIRTQEETGRHVRMLTHEIRSTLDRHTILKTTLVELGRTLALEECALWMPTRTGLELQLSYTLRHQHPVEYTVPIQLPVINQVFGTSRAVKISPNSPVARLRPVSGKYMLGEVVAVRVPLLHLSNFQINDWPELSTKRYALMVLMLPSDSARQWHVHELELVEVVADQVAVALSHAAILEESMRARDLLMEQNVALDLARREAETAIRARNDFLAVMNHEMRTPMHAIIALSSLLQETELTPEQRLMVETILKSSNLLATLMNDVLDLSRLEDGSLQLELGTFNLHTLFREVLNLIKPIAVVKKLPITLNLAPDLPEFVVGDEKRLMQIILNIVGNAVKFSKQGSISVTALVTKSDTRAADFFVVPTGSHFYLRVKVKDSGAGINPQDIPKIFTKFAQTQSLATRSSGGSGLGLAISKRFVNLMEGNIWIESDGLGKGCTAIFDVKLGISERSNESKQSGIPKVPAIPRHSNFTGLKVLVMDENGVSRMVTKGLLVHLGCEVTTVSSNEECLRVVSHEHKVVFMDVCMPGVENYQIALRIHEKFTKQRHQRPLLVALSGNTDKSTKEKCMSFGLDGVLLKPVSLDNIRDVLSDLLEPRVLYEGM

Assays:
ETR1 = ETR1 (Arabidopsis thaliana, UniProt P49333); conditions: read-out: calculated dissociation constant (Kd); ethylene binding to ETR1; cited from earlier work
Sequence of ETR1 (P49333 whole entry): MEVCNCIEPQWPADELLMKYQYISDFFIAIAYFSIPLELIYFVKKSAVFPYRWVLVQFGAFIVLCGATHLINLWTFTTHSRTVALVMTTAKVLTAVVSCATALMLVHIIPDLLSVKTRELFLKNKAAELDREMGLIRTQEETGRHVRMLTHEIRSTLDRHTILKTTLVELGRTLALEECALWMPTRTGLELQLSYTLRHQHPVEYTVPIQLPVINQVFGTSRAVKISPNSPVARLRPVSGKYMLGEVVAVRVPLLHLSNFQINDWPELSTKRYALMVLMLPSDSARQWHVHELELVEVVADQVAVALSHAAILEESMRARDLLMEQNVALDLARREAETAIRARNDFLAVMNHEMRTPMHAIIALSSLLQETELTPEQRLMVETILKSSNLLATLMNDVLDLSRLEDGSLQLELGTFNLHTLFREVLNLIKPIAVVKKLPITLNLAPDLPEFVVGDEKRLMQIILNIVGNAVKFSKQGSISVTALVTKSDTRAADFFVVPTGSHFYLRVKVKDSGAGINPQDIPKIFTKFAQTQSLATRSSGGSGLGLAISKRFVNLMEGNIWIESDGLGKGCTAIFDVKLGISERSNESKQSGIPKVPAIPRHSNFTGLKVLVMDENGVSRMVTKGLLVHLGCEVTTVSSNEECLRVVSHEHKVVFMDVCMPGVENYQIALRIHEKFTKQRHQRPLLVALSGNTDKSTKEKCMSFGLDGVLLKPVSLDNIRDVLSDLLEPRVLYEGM

plants = conditions: in vivo; cited from earlier work
[1] = previously reported; cited from earlier work
[2] = previously reported; cited from earlier work; remark: listed apart in the source
[3] = tested on: Arabidopsis seedlings, etr1 etr2 ein4 background; conditions: previously reported; cited from earlier work

Row | Molecule | Kd (ETR1) [nM] | ethylene concentration plants respond to (as low as) (plants) [nL L^−1] | copper cofactor binding (previous studies) [1] | ethylene binding (previous studies) [2] | ethylene sensitivity of plants (previous studies) [3]
1 | C=C [Ethylene, ethylene] | 2.4 | 0.2 |  |  | 
2 | B1 |  |  | no longer binds the copper cofactor | no longer binds ethylene | confers dominant ethylene insensitivity
